Assay results: US20260132182A1 (published 2026)
Starred links: 1 amine or outer side, 2 acyl side, 3 side chain; linkers in the order of their positions; H or OH if unused. Non-standard residues stand in square brackets, D forms with d. Groups on a side chain read outwards from the residue. *: point of attachment. C20 diacid = O=C(O)CCCCCCCCCCCCCCCCCCC(=O)*; C18 diacid = O=C(O)CCCCCCCCCCCCCCCCC(=O)*; C16 diacid = O=C(O)CCCCCCCCCCCCCCC(=O)*; γGlu = O=C(O)[C@H](CCC(=O)[*:2])N[*:1]; εLys = N[C@@H](CCCCN[*:1])C(=O)[*:2]; Trx = NC[C@H]1CC[C@H](C(=O)O)CC1; AEEA = NCCOCCOCC(=O)O; Aib = CC(C)(N)C(=O)O

T1: human amylin-3 (a) receptor (human, UniProt P30988 25-474; O60896 24-148)
T1 sequence (looked up) 1: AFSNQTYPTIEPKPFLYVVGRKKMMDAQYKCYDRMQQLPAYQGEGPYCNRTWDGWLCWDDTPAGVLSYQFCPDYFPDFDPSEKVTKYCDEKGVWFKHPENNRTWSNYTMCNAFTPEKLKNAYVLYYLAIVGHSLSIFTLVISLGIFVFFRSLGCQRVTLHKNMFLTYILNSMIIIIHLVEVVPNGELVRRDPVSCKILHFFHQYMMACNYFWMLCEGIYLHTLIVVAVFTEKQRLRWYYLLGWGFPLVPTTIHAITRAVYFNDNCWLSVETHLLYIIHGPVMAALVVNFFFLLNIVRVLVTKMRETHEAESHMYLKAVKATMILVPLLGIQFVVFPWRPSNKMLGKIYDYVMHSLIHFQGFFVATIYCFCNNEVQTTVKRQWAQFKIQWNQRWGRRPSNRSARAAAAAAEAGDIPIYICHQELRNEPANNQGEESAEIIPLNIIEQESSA
T1 sequence (looked up) 2: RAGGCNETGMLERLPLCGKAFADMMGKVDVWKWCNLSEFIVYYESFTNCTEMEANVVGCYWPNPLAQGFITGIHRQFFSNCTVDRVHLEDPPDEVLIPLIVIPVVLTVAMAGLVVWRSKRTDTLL


Tests used:
[1] = target: T1, human amylin-3 (a) receptor; test: cell-based or functional assay
[2] = target: human GLP-1 receptor (human, UniProt P43220 24-463); test: cell-based or functional assay

Binder	Human AmyR3 potency [EC50 (pM)] [1] [pM]	Human GLP-1R potency [EC50 (pM)] [2] [pM]
Compound 0272 (peptide) peptide: HWEGTFTSDK([AEEA-AEEA-γGlu-Trx-C20 diacid])SSYLEEQAAREFIEWLVRGRGEASELSTAALGRLSAELHELATLPRTETGSGSP-NH2	11.3	9.2
Compound 0292 (peptide) peptide: H[Aib]EGTFTSDK([AEEA-AEEA-γGlu-C16 diacid])SSYLEEQAAREFIAWLVRGRGGGGGASELSTAALGRLSK([AEEA-AEEA-γGlu-C16 diacid])ELHELATLPRTETGSGSP-NH2	33.8	12
Compound 0414 (peptide) peptide: HAEGTFTSDVSSYLEEK([AEEA-AEEA-γGlu-Trx-C20 diacid])AAREFIEWLVRGRGEASELSTAALGRLSAELHELATLPRTETGSGSP-NH2	17.7	11.2
Compound 0281 (peptide) peptide: H[Aib]EGTFTSDVSSYLEEQAAREFIAWLVRGK([AEEA-AEEA-γGlu-C16 diacid])GGGGGEASELSTAALGRLSAELHELK([AEEA-AEEA-γGlu-C16 diacid])TLPRTETGSGSP-NH2	114	35.2
Compound 0397 (peptide) peptide: H[Aib]EGTFTSDVSSYLEEK([AEEA-AEEA-γGlu-C16 diacid])AAREFIAWLVRGRGGGGGEASELSTAALGRLSAELHELATLK([AEEA-AEEA-γGlu-C16 diacid])RTETGSGSP-NH2	18.5	3.8
Compound 0396 (peptide) peptide: H[Aib]EGTFTSDVSSYLEEK([AEEA-AEEA-γGlu-C16 diacid])AAREFIAWLVRGRGGGGGEASELSTAALGRLSAELHELK([AEEA-AEEA-γGlu-C16 diacid])TLPRTETGSGSP-NH2	32.8	4.8
Compound 0285 (peptide) peptide: H[Aib]EGTFTSDVSSYLEEQAAREFIAWLVRGK([AEEA-AEEA-γGlu-C16 diacid])GGGGGEASELSTAALGRLSAELHELATLPRTETGK([AEEA-AEEA-γGlu-C16 diacid])GSP-NH2	78.9	19
Compound 0044 (peptide) peptide: H[Aib]EGTFTSDVSSYLEGQAAK([εLys-AEEA-AEEA-γGlu-C18 diacid])EFIAWLVRGRGGGEASELSTAALGRLSAELHELATLPRTETGSGSP-NH2	9.1	16
Compound 0284 (peptide) peptide: H[Aib]EGTFTSDVSSYLEEQAAREFIAWLVRGK([AEEA-AEEA-γGlu-C16 diacid])GGGGGEASELSTAALGRLSAELHELATLK([AEEA-AEEA-γGlu-C16 diacid])RTETGSGSP-NH2	32.8	41.7
Compound 0294 (peptide) peptide: H[Aib]EGTFTSDVSSYLEK([AEEA-AEEA-γGlu-C16 diacid])QAAREFIAWLVRGRGGGGGASELSTAALGRLSK([AEEA-AEEA-γGlu-C16 diacid])ELHELATLPRTETGSGSP-NH2	34.3	13.7
Compound 0280 (peptide) peptide: H[Aib]EGTFTSDVSSYLEEQAAREFIAWLVRGK([AEEA-AEEA-γGlu-C16 diacid])GGGGGEASELSTAALGRLSAELHK([AEEA-AEEA-γGlu-C16 diacid])LATLPRTETGSGSP-NH2	18	34.3
Compound 0297 (peptide) peptide: H[Aib]EGTFTSDVSSYLEEQAAREFIAWLVRK([AEEA-AEEA-γGlu-C16 diacid])RGGGGGASELSTAALGRLSK([AEEA-AEEA-γGlu-C16 diacid])ELHELATLPRTETGSGSP-NH2	46	30.2
Compound 0416 (peptide) peptide: HAEGTFTSK([AEEA-AEEA-γGlu-Trx-C20 diacid])VSSYLEEQAAREFIEWLVRGRGEASELSTAALGRLSAELHELATLPRTETGSGSP-NH2	18.3	105
Compound 0415 (peptide) peptide: H[Aib]EGTFTSDVSSYLEEK([AEEA-AEEA-γGlu-Trx-C20 diacid])AAREFIEWLVRGRGEASELSTAALGRLSAELHELATLPRTETGSGSP-NH2	16.1	10.3
Compound 0411 (peptide) peptide: H[Aib]EGTFTSDVSSYLEEK([AEEA-AEEA-γGlu-C16 diacid])AAREFIAWLVRGRGGGGGEASELSTAALGRLSAELHELATLPRTETGK([AEEA-AEEA-γGlu-C16 diacid])GSP-NH2	45.9	3.5
Compound 0299 (peptide) peptide: H[Aib]EGTFTSDVSSYLEEK([AEEA-AEEA-γGlu-C16 diacid])AAREFIAWLVRGRGGGGGEASELSTAALGRLSAELHK([AEEA-AEEA-γGlu-C16 diacid])LATLPRTETGSGSP-NH2	11.5	6
Compound 0295 (peptide) peptide: H[Aib]EGTFTSDVSSYLEEK([AEEA-AEEA-γGlu-C16 diacid])AAREFIAWLVRGRGGGGGASELSTAALGRLSK([AEEA-AEEA-γGlu-C16 diacid])ELHELATLPRTETGSGSP-NH2	32.7	4.8
Compound 0045 (peptide) peptide: H[Aib]EGTFTSDVSSYLEGQAAKEFIAWLVRGRK([εLys-AEEA-AEEA-γGlu-C18 diacid])GGEASELSTAALGRLSAELHELATLPRTETGSGSP-NH2	25.9	19.4
Compound 0273 (peptide) peptide: HWEGTFTSDK([AEEA-AEEA-γGlu-C18 diacid])SSYLEEQAAREFIEWLVRGRGEASELSTAALGRLSAELHELATLPRTETGSGSP-NH2	18	24.9
Compound 0417 (peptide) peptide: H[Aib]EGTFTSK([AEEA-AEEA-γGlu-Trx-C20 diacid])VSSYLEEQAAREFIEWLVRGRGEASELSTAALGRLSAELHELATLPRTETGSGSP-NH2	21	97.8
Compound 0296 (peptide) peptide: H[Aib]EGTFTSDVSSYLEEQAARK([AEEA-AEEA-γGlu-C16 diacid])FIAWLVRGRGGGGGASELSTAALGRLSK([AEEA-AEEA-γGlu-C16 diacid])ELHELATLPRTETGSGSP-NH2	29.9	4
